# Experimental data published in IntAct's records for PubMed 20956295.
# B1: Tumor necrosis factor receptor superfamily member 6 (Homo sapiens), P25445-1 (parent)
# chain: MLGIWTLLPLVLTSVARLSSKSVNAQVTDINSKGLELRKTVTTVETQNLEGLHHDGQFCHKPCPPGERKARDCTVNGDEPDCVPCQEGKEYTDKAHFSSKCRRCRLCDEGHGLEVEINCTRTQNTKCRCKPNFFCNSTVCEHCDPCTKCEHGIIKECTLTSNTKCKEEGSRSNLGWLCLLLLPIPLIVWVKRKEVQKTCRKHRKENQGSHESPTLNPETVAINLSDVDLSKYITTIAGVMTLSQVKGFVRKNGVNEAKIDEIKNDNVQDTAEQKVQLLRNWHQLHGKKEAYDTLIKDLKKANLCTLAEKIQTIILKDITSDSENSNFRNEIQSLV
# Variants of: B1
# Conditions: with cav1_human CAV1, Q03135
# cav1_human CAV1, Q03135, sequence (Q03135 whole entry): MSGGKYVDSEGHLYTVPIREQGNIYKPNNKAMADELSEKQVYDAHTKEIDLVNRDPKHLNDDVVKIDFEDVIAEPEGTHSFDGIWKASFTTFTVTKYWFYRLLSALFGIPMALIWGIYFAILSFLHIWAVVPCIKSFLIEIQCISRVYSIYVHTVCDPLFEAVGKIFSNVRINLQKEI
row,effect of a mutation on the interaction,Variant
1,disrupting interaction,MLGIWTLLPLVLTSVARLSSKSVNAQVTDINSKGLELRKTVTTVETQNLEGLHHDGQFCHKPCPPGERKARDCTVNGDEPDCVPCQEGKEYTDKAHFSSKCRRCRLCDEGHGLEVEINCTRTQNTKCRCKPNFFCNSTVCEHCDPCTKCEHGIIKECTLTSNTKCKEEGSRSNLGWLCLLLLPIPLIVWVKRKEVQKTSRKHRKENQGSHESPTLNPETVAINLSDVDLSKYITTIAGVMTLSQVKGFVRKNGVNEAKIDEIKNDNVQDTAEQKVQLLRNWHQLHGKKEAYDTLIKDLKKANLCTLAEKIQTIILKDITSDSENSNFRNEIQSLV [C199S]
